Source: US20240360223A1

Tests used:
[1] = target: poly-specificity reagent (PSR); assay: flow cytometry PSR assay: test article on protein A beads, biotinylated PSR detected with streptavidin-PE
[2] = target: poly-specificity reagent (PSR); assay: PSR assay: protein on protein A coated beads, biotinylated PSR, SA-PE, flow cytometry; + PSR panel (Q2 is 0 in the No PSR panel FIG. 43E)
[3] = target: poly-specificity reagent (PSR); assay: flow cytometry PSR assay: test article on Protein A beads, biotinylated PSR, read-out with SA-PE

| % of events in Q2 (Expression-FITC positive, Binding-PE positive), + PSR [1] | % of beads in quadrant Q2 (Binding-PE positive), + PSR [2] | % of events in Q2 (Expression-FITC positive, Binding-PE positive), + PSR [3] | Substance |
| --- | --- | --- | --- |
| 79.6% | – | – | Ixekizumab (PSR positive control) (antibody) |
| – | 27.1% | – | Ixekuzumab (antibody) |
| – | – | 56.2% | Rituximab (antibody) |
| 0.067% | – | 0.087% | trastuzumab (antibody) |
| – | – | 79.6% | Ixekizumab (antibody) |
